# Results as given in patent US20080160617A1, “AGENT FOR INDUCING EMBRYONIC STEM CELL TO ECTODERMAL CELL, METHOD FOR OBTAINING THE SAME, AND USE OF THE SAME” (KYOWA HAKKO KOGYO CO., LTD., priority 2001, published 2008).
# B1: SFRP 1: mouse-derived secreted frizzled-related protein 1 (SEQ ID NO:7), about 38 kDa band identified in solution having SDIA activity (protein, listed as Mus musculus)
# chain: MGVGRSARGRGGAASGVLLALAAALLAAGSASEYDYVSFQSDIGSYQSGRFYTKPPQCVDIPVDLRLCHNVGYKKMVLPNLLEHETMAEVKQQASSWVPLLNKNCHMGTQVFLCSLFAPVCLDRPIYPCRWLCEAVRDSCEPVMQFFGFYWPEMLKCDKFPEGDVCIAMTPPNTTEASKPQGTTVCPPCDNELKSEAIIEHLCASEFALRMKIKEVKKENGDKKIVPKKKKPLKLGPIKKKELKALVLFLKNGADCPCHQLDNLSHNFLIMGRKVKSQYLLTAIHKWDKKNKEFKNFMKRMKNHECPTFQSVFK
# B2: GDNF: glial cell-line derived neurotrophic factor (protein, UniProt P39905 78-211, looked up)
# Glial cell line-derived …: SPDKQMAVLPRRERNRQAAAANPENSRGKGRRGQRGKNRGCVLTAIHLNVTDLGLGYETKEELIFRYCSGSCDAAETTYDKILKNLSRNRRLVSDKVGQACCRPIAFDDDLSFLDDNLVYHILRKHSAKRCGCI
# B3: FGF-8: fibroblast growth factor 8 (protein, UniProt P55075 23-233, looked up)
# Fibroblast growth factor 8: QEGPGRGPALGRELASLFRAGREPQGVSQQHVREQSLVTDQLSRRLIRTYQLYSRTSGKHVQVLANKRINAMAEDGDPFAKLIVETDTFGSRVRVRGAETGLYICMNKKGKLIAKSNGKGKDCVFTEIVLENNYTALQNAKYEGWYMAFTRKGRPRKGSKTRQHQREVHFMKRLPRGHHTTEQSLRFEFLNYPPFTRSLRGSQRTWAPEPR
# B4: IL-11: interleukin 11 (protein, UniProt P20809 22-199, looked up)
# Interleukin-11: PGPPPGPPRVSPDPRAELDSTVLLTRSLLADTRQLAAQLRDKFPADGDHNLDSLPTLAMSAGALGALQLPGVLTRLRADLLSYLRHVQWLRRAGGSSLKTLEPELGTLQARLDRLLRRLQLLMSRLALPQPPPDPPAPPLAPPSSAWGGIRAAHAILGGLHLTLDWAVRGLLLLKTRL
# B5: BMP4: bone morphogenetic protein 4, dorsal factor of neural tube (manufactured by R & D) (protein, UniProt P12644 293-408, looked up)
# Bone morphogenetic protein 4: SPKHHSQRARKKNKNCRRHSLYVDFSDVGWNDWIVAPPGYQAFYCHGDCPFPLADHLNSTNHAIVQTLVNSVNSSIPKACCVPTELSAISMLYLDEYDKVVLKNYQEMVVEGCGCR
# Key:
# ES cell EB5 [1] = experiment: Nerve differentiation of ES cell EB5 by solution recovered from PA6 cell with polyanion-containing Hanks' balanced salt solution (SDIA activity); type: cell-based, mouse; conditions: SFRP 1 removed with anti-SFRP 1 polyclonal antibody on protein G Sepharose, 4° C., 15 hours; compared with untreated solution
# Description: ES cell EB5 (H. Niwa et al., Nature Genet., 24, 372 (2000); obtained from Dr. Hitoshi Niwa at the Molecular Control Medical Science Course, Medical School, Osaka University) was used as the embryonic stem cell, and an MC3T3-G2/PA6 cell (H. Kodama et al., J. Cell Physiol., 112) 89 (1982), hereinafter referred to as “PA6 cell”) as the stromal cell, and the ES cell EB5 was cultured in accordance with the method described in Reference Example 1 and used in the test.
# Cells of PA6 cultured to almost confluent state on a dish of 10 cm in diameter were washed twice with 10 ml of PBS(−) (manufactured by Invitrogen) and once with 10 ml of Hanks' balanced salt solution (manufactured by Invitrogen), 3 ml of Hanks' balanced salt solution containing from 0.001% (w/v) to 0.1% (w/v) of heparin (manufactured by Nacalai Tesque) was added thereto, the mixture was allowed to stand at 37° C. for 30 minutes, and the solution was recovered. The solution obtained was added to the PA6 on the 10 cm, dish washed in the same manner described above, the mixture was allowed to stand at 37° C. for 30 minutes in the same manner, and then the solution was recovered. This process was carried out on PA6 on the other 10 cm dish, and effect of the recovered solution ES cell was examined. […]
# embryonic stem cell = conditions: cited from earlier work
# ES cell EB5 [2] = experiment: Effects of shh and BMP4 on dorso-ventral neural markers in ES cell EB5/PA6 coculture; type: cell-based, mouse; conditions: shh 300 nmol/l or BMP4 0.5 nmol/l added at medium exchange on 4th, 6th, 8th days; 10 days coculture with PA6
# Description: According to the method described in Reference Example 1, the ES cell EB5 was cultured for 10 days in the serum-free medium without BMP4 by using the PA6 cell as a feeder cell. That is, the PA6 cell proliferated to almost confluent on a 3 cm tissue culture dish was used as a feeder cell, the ES cell was inoculated onto the feeder cell at a density of 200 cells/dish, the medium was exchanged with a fresh serum-free medium on the 4th, 6th and 8th days, and the cells were cultured at 37° C. for 10 days in a 5% CO2 incubator.
# Effects of shh were evaluated according to the similar method described above, by using a serum-free medium to which 300 nmol/l of shh (manufactured by R & D) had been added at the time of the medium exchange on the 4th, 6th and 8th days.
# Effects of BMP4 were evaluated according to the similar method described above, by using a serum-free medium to which 0.5 nmol/l of BMP4 (manufactured by R & D) had been added at the time of the medium exchange on the 4th, 6th and 8th days.
# Ten days after coculturing, the cells cultured by respective culturing methods were fixed according to the method described in Reference Example 1, and the colonies formed as a result of coculturing of the ES cell with PA6 cell were immunologically stained with the anti-NCAM antibody, an antibody against HNF-3β which is a marker of the basal plate existing on the most ventral side of the central nervous system primordium (neural tube) (purchased from Developmental Studies Hybridoma Bank), an antibody against Nkx2.2 as a marker existing secondary to the HNF-3β from the ventral side (purchased from Developmental Studies Hybridoma Bank), an antibody against Pax-7 as a marker of the neural tube dorsal side (purchased from Developmental Studies Hybridoma Bank), an antibody against AP-2 as a marker of the neural crest cell (purchased from Developmental Studies Hybridoma Bank), an antibody against islet 1 as a marker of motor neuron (purchased from Developmental Studies Hybridoma Bank) and an antibody against VAchT which is a marker of cholinergic neuron (manufactured by Chemicon).
# ES cell EB5 [3] = experiment: Coculture of ES cell EB5 with PA6 cell in BMP4-added serum-free medium, immunological staining; type: cell-based, mouse
# Description: A medium was prepared by adding 0.5 nmol/l BMP4 (manufactured by R & D) to the serum-free medium described in Reference Example 1. The ES cell EB5 was cocultured with PA6 cell according to the method described in Reference Example 1, using the thus produced BMP4-added serum-free medium instead of the serum-free medium used in Reference Example 1. Eight days after culturing, immunological cell staining was carried out by using the anti-NCAM antibody, the anti-nestin antibody or an antibody against a non-neural ectoderm cell marker E cadherin (manufactured by Takara Shuzo). As a control, coculturing was carried out in the serum-free medium without BMP4.
# Also, 8 days after culturing in the BMP4-added serum-free medium, the medium was changed to Glasgow MEM medium containing 10% fetal bovine serum (manufactured by GIBCO BRL), followed by culturing for 3 days. The thus cultured cells were fixed for 30 minutes by adding 4% paraformaldehyde and immunologically stained with an antibody against a skin epidermis cell marker keratin 14 (manufactured by Biomedia), and the results were compared with those in which culturing was continued for additional 3 days in the bovine serum-free medium, with the results shown in FIGS. 9G, H and I.
# ES cell EB5 [4] = experiment: Mesodermal marker staining of colonies from ES cell/PA6 coculture in BMP4-added serum-free medium; type: cell-based, mouse; conditions: 0.5 nmol/l BMP4-added serum-free medium, coculture with PA6 cell, 8 days
# Text: A medium was produced by adding 0.5 nmol/l of BMP4 (manufactured by R & D) to the serum-free medium described in Reference Example 1. Using the thus produced BMP4-added serum-free medium instead of the serum-free medium used in Reference Example 1, the ES cell EB5 and PA6 cell were cocultured according to the method described in Reference Example 1. That is, the PA6 cell proliferated to almost confluent on a 3 cm tissue culture dish was used as a feeder cell, the ES cell was inoculated onto the feeder cell at a density of 200 cells/dish, medium exchange was carried out with a fresh medium on the 4th, 6th and 7th days, and the cells were cultured at 37° C. for 8 days in a stream of 5% carbon dioxide in a CO2 incubator.
# Eight days after coculturing, the cells were fixed according to the method described in Reference Example 1, and colonies formed as a result of coculturing of the ES cell and PA6 cell were immunologically stained with the anti-NCAM antibody, the anti-E cadherin antibody, an MF20 antibody which recognizes mesodermal cells (manufactured by Developmental Studies Hybridoma Bank) and an antibody against PDGF receptor α or Flk1 whose expression are observed in mesodermal cells (S. I. Nishikawa et al., Development, 125, 1747 (1998)).
# [5] = 0.5 nmol/l BMP4-added serum-free medium, coculture with PA6 cell, 8 days
molecule,measurement,setting,value
B1,SDIA activity of solution after removal of SFRP 1,ES cell EB5 [1],decrease of SDIA activity was observed
B2,SDIA-like activity to induce differentiation of embryonic stem cell into ectoderm system cells,embryonic stem cell,no SDIA-like activity
B3,SDIA-like activity to induce differentiation of embryonic stem cell into ectoderm system cells,embryonic stem cell,no SDIA-like activity
B4,SDIA-like activity to induce differentiation of embryonic stem cell into ectoderm system cells,embryonic stem cell,no SDIA-like activity
B5,ratio of ES cell-derived colonies stained with Anti-AP-2 antibody,ES cell EB5 [2],24%
same,ratio of ES cell-derived colonies stained with Anti-HNF-3β antibody,ES cell EB5 [2],9%
same,ratio of ES cell-derived colonies stained with Anti-NCAM antibody,ES cell EB5 [2],90%
same,ratio of ES cell-derived colonies stained with Anti-Nkx2.2 antibody,ES cell EB5 [2],19%
same,ratio of ES cell-derived colonies stained with Anti-Pax-7 antibody,ES cell EB5 [2],72%
same,ratio of ES cell-derived colonies stained with Anti-VAchT antibody,ES cell EB5 [2],42%
same,ratio of ES cell-derived colonies stained with Anti-islet 1 antibody,ES cell EB5 [2],36%
same,anti-NCAM antibody staining of ES cell-derived colonies,ES cell EB5 [3]; [5],anti-NCAM antibody-negative
same,anti-nestin antibody staining of ES cell-derived colonies,ES cell EB5 [3]; [5],anti-nestin antibody-negative
same,frequency of E cadherin-positive colonies,ES cell EB5 [3]; [5],98%
same,frequency of keratin 14-positive colonies,"ES cell EB5 [3]; 8 days in BMP4-added serum-free medium, then 3 days in Glasgow MEM medium containing 10% fetal bovine serum",47%
same,frequency of keratin 14-positive colonies,ES cell EB5 [3]; BMP4-added serum-free medium throughout (8 days plus additional 3 days serum-free),34%
same,"colonies stained with mesodermal cell markers PDGF receptor α, Flk1 and MF20, of the total colonies",ES cell EB5 [4],≤ 5%
